The numbers were not newly measured in paper PMC12851578, which cites them from elsewhere.

As usually defined, the Kd is a measure of binding affinity in units of concentration.

The series has as its target F-actin (Oryctolagus cuniculus) (UniProt P68135). As to conditions: cited from earlier work.

As for LifeAct (from UniProt Q08641), the Kd is 2200 nM.
